This test has as its target full-length SARS-CoV-2 spike, WA-1 / Wuhan-1 (S wt) (SARS-CoV-2) (UniProt P0DTC2). Nature of the test: cell-based or functional assay.

LY-CoV555 (antibody) returned a pseudotyped virus neutralization IC50 of 0.0071 µg/mL and a pseudotyped virus neutralization IC80 of 0.0357 µg/mL.

The values above are taken from patent US20240117011A1.
